Laboratory results published in patent publication US10947289B2, “Glyco-modified atrial natriuretic peptide” (priority 2013, dated 2021).

Assay: Detection of test substance in rat plasma by LC-MS/MS (Test Example 3)
Format: in vivo
Conditions: rat plasma, 100 nmol/kg i.v., LC-MS/MS; time at which the test substance was finally detected
Description: Before the administration and 15, 30, 60, 90, 120, 180, and 240 minutes after the administration, blood was sampled (200 μL/sampling) over time from the jugular vein. The blood samples were immediately left on ice.
The collected blood samples were centrifuged at 5000 rpm at 4° C. for 5 minutes by use of a centrifuge (Sigma 4K15, rotor: Nr12130-H). The separated plasma samples were divided into two types (samples for PK measurement and for cGMP measurement) and stored at −80° C. until measurement.
An internal standard (20 μL (500 nM) of a stable isotope of hANP) and an acetic acid mixed solvent (AcOH/distilled water/DMSO=5/3/2, v/v/v) were added to 50 μL of each rat plasma sample prepared in (1) and then mixed therewith. The mixture was transferred to Amicon Ultra-0.5 50K (Millipore Corp., MA) and centrifuged at 14000 rpm at 15° C. for 30 minutes. The obtained filtrate was transferred to Amicon Ultra-0.5 3K (Millipore Corp., MA) and centrifuged again under the aforementioned conditions. The solution remaining on the filter was recovered and transferred to a 96-well deep well plate. The content of the test substance was measured by LC-MS/MS (LC: Shimadzu LC-10ADVP (Shimadzu Corp.), MS/MS: API 4000 QTrap (AB SCIEX)) to calculate the concentration in plasma. The time at which the test substance was finally detected is shown in the rightmost column of Table 2.

SMILES	Maximum time of detection after administration [h]
CC[C@H](C)[C@@H]1NC(=O)[C@H](CCCNC(=N)N)NC(=O)[C@H](CC(=O)O)NC(=O)[C@H](CCSC)NC(=O)[C@H](CCCNC(=N)N)NC(=O)CNC(=O)CNC(=O)[C@H](Cc2ccccc2)NC(=O)[C@@H](NC(=O)[C@H](CO)NC(=O)[C@H](CO)NC(=O)[C@H](CCCNC(=N)N)NC(=O)[C@H](CCCNC(=N)N)NC(=O)[C@H](CC(C)C)NC(=O)[C@H](CO)NC(=O)CO[C@@H]2O[C@H](CO)[C@@H](O[C@@H]3O[C@H](CO)[C@@H](O[C@@H]4O[C@H](CO[C@H]5O[C@H](CO)[C@@H](O)[C@H](O)[C@@H]5O[C@@H]5O[C@H](CO)[C@@H](O[C@@H]6O[C@H](CO)[C@H](O)[C@H](O)[C@H]6O)[C@H](O)[C@H]5NC(C)=O)[C@@H](O)[C@H](O[C@H]5O[C@H](CO)[C@@H](O)[C@H](O)[C@@H]5O[C@@H]5O[C@H](CO)[C@@H](O[C@@H]6O[C@H](CO)[C@H](O)[C@H](O)[C@H]6O)[C@H](O)[C@H]5NC(C)=O)[C@@H]4O)[C@H](O)[C@H]3NC(C)=O)[C@H](O)[C@H]2NC(C)=O)CSSC[C@@H](C(=O)N[C@@H](CC(N)=O)C(=O)N[C@@H](CO)C(=O)N[C@@H](Cc2ccccc2)C(=O)N[C@@H](CCCNC(=N)N)C(=O)N[C@@H](Cc2ccc(O)cc2)C(=O)O)NC(=O)CNC(=O)[C@H](CC(C)C)NC(=O)CNC(=O)[C@H](CO)NC(=O)[C@H](CCC(N)=O)NC(=O)[C@H](C)NC(=O)CNC1=O [Compound 2-10, AG(9)-hANP(1-28)]	1.5
CC[C@H](C)[C@@H]1NC(=O)[C@H](CCCNC(=N)N)NC(=O)[C@H](CC(=O)O)NC(=O)[C@H](CCSC)NC(=O)[C@H](CCCNC(=N)N)NC(=O)CNC(=O)CNC(=O)[C@H](Cc2ccccc2)NC(=O)[C@@H](NC(=O)[C@H](CO)NC(=O)[C@H](CO)NC(=O)[C@H](CCCNC(=N)N)NC(=O)[C@H](CCCNC(=N)N)NC(=O)[C@H](CC(C)C)NC(=O)[C@H](CO)NC(=O)CO[C@@H]2O[C@H](CO)[C@@H](O[C@@H]3O[C@H](CO)[C@@H](O[C@@H]4O[C@H](CO[C@H]5O[C@H](CO)[C@@H](O)[C@H](O)[C@@H]5O)[C@@H](O)[C@H](O[C@H]5O[C@H](CO)[C@@H](O)[C@H](O)[C@@H]5O)[C@@H]4O)[C@H](O)[C@H]3NC(C)=O)[C@H](O)[C@H]2NC(C)=O)CSSC[C@@H](C(=O)N[C@@H](CC(N)=O)C(=O)N[C@@H](CO)C(=O)N[C@@H](Cc2ccccc2)C(=O)N[C@@H](CCCNC(=N)N)C(=O)N[C@@H](Cc2ccc(O)cc2)C(=O)O)NC(=O)CNC(=O)[C@H](CC(C)C)NC(=O)CNC(=O)[C@H](CO)NC(=O)[C@H](CCC(N)=O)NC(=O)[C@H](C)NC(=O)CNC1=O [Compound 2-26, AG(5)-hANP(1-28)]	2
CC[C@H](C)[C@@H]1NC(=O)[C@H](CCCNC(=N)N)NC(=O)[C@H](CC(=O)O)NC(=O)[C@H](CCSC)NC(=O)[C@H](CCCNC(=N)N)NC(=O)CNC(=O)CNC(=O)[C@H](Cc2ccccc2)NC(=O)[C@@H](NC(=O)[C@H](CO)NC(=O)[C@H](CO)NC(=O)[C@H](CCCNC(=N)N)NC(=O)[C@H](CCCNC(=N)N)NC(=O)[C@H](CC(C)C)NC(=O)[C@H](CO)NC(=O)CCc2cn(CCO[C@@H]3O[C@H](CO)[C@@H](O[C@@H]4O[C@H](CO)[C@@H](O[C@@H]5O[C@H](CO[C@H]6O[C@H](CO)[C@@H](O)[C@H](O)[C@@H]6O[C@@H]6O[C@H](CO)[C@@H](O[C@@H]7O[C@H](CO[C@]8(C(=O)O)C[C@H](O)[C@@H](NC(C)=O)[C@H]([C@H](O)[C@H](O)CO)O8)[C@H](O)[C@H](O)[C@H]7O)[C@H](O)[C@H]6NC(C)=O)[C@@H](O)[C@H](O[C@H]6O[C@H](CO)[C@@H](O)[C@H](O)[C@@H]6O[C@@H]6O[C@H](CO)[C@@H](O[C@@H]7O[C@H](CO[C@]8(C(=O)O)C[C@H](O)[C@@H](NC(C)=O)[C@H]([C@H](O)[C@H](O)CO)O8)[C@H](O)[C@H](O)[C@H]7O)[C@H](O)[C@H]6NC(C)=O)[C@@H]5O)[C@H](O)[C@H]4NC(C)=O)[C@H](O)[C@H]3NC(C)=O)nn2)CSSC[C@@H](C(=O)N[C@@H](CC(N)=O)C(=O)N[C@@H](CO)C(=O)N[C@@H](Cc2ccccc2)C(=O)N[C@@H](CCCNC(=N)N)C(=O)N[C@@H](Cc2ccc(O)cc2)C(=O)O)NC(=O)CNC(=O)[C@H](CC(C)C)NC(=O)CNC(=O)[C@H](CO)NC(=O)[C@H](CCC(N)=O)NC(=O)[C@H](C)NC(=O)CNC1=O [Compound 2-12, SG-triazole-hANP(1-28)]	1.5
CC[C@H](C)[C@@H]1NC(=O)[C@H](CCCNC(=N)N)NC(=O)[C@H](CC(=O)O)NC(=O)[C@H](CCSC)NC(=O)[C@H](CCCNC(=N)N)NC(=O)CNC(=O)CNC(=O)[C@H](Cc2ccccc2)NC(=O)[C@@H](NC(=O)[C@H](CO)NC(=O)[C@H](CO)NC(=O)[C@H](CCCNC(=N)N)NC(=O)[C@H](CCCNC(=N)N)NC(=O)[C@H](CC(C)C)NC(=O)[C@H](CO)NC(=O)CCOCCOCCOCCOCCNC(=O)CO[C@@H]2O[C@H](CO)[C@@H](O[C@@H]3O[C@H](CO)[C@@H](O[C@@H]4O[C@H](CO[C@H]5O[C@H](CO)[C@@H](O)[C@H](O)[C@@H]5O[C@@H]5O[C@H](CO)[C@@H](O[C@@H]6O[C@H](CO[C@]7(C(=O)O)C[C@H](O)[C@@H](NC(C)=O)[C@H]([C@H](O)[C@H](O)CO)O7)[C@H](O)[C@H](O)[C@H]6O)[C@H](O)[C@H]5NC(C)=O)[C@@H](O)[C@H](O[C@H]5O[C@H](CO)[C@@H](O)[C@H](O)[C@@H]5O[C@@H]5O[C@H](CO)[C@@H](O[C@@H]6O[C@H](CO[C@]7(C(=O)O)C[C@H](O)[C@@H](NC(C)=O)[C@H]([C@H](O)[C@H](O)CO)O7)[C@H](O)[C@H](O)[C@H]6O)[C@H](O)[C@H]5NC(C)=O)[C@@H]4O)[C@H](O)[C@H]3NC(C)=O)[C@H](O)[C@H]2NC(C)=O)CSSC[C@@H](C(=O)N[C@@H](CC(N)=O)C(=O)N[C@@H](CO)C(=O)N[C@@H](Cc2ccccc2)C(=O)N[C@@H](CCCNC(=N)N)C(=O)N[C@@H](Cc2ccc(O)cc2)C(=O)O)NC(=O)CNC(=O)[C@H](CC(C)C)NC(=O)CNC(=O)[C@H](CO)NC(=O)[C@H](CCC(N)=O)NC(=O)[C@H](C)NC(=O)CNC1=O [Compound 2-29, SG-PEG(3)-hANP(1-28)]	2
CC[C@H](C)[C@@H]1NC(=O)[C@H](CCCNC(=N)N)NC(=O)[C@H](CC(=O)O)NC(=O)[C@H](CCSC)NC(=O)[C@H](CCCNC(=N)N)NC(=O)CNC(=O)CNC(=O)[C@H](Cc2ccccc2)NC(=O)[C@@H](NC(=O)[C@H](CO)NC(=O)[C@H](CO)NC(=O)[C@H](CCCNC(=N)N)NC(=O)[C@H](CCCNC(=N)N)NC(=O)[C@H](CC(C)C)NC(=O)[C@H](CO)NC(=O)CCOCCOCCOCCOCCOCCOCCOCCOCCOCCOCCOCCOCCNC(=O)CO[C@@H]2O[C@H](CO)[C@@H](O[C@@H]3O[C@H](CO)[C@@H](O[C@@H]4O[C@H](CO[C@H]5O[C@H](CO)[C@@H](O)[C@H](O)[C@@H]5O[C@@H]5O[C@H](CO)[C@@H](O[C@@H]6O[C@H](CO[C@]7(C(=O)O)C[C@H](O)[C@@H](NC(C)=O)[C@H]([C@H](O)[C@H](O)CO)O7)[C@H](O)[C@H](O)[C@H]6O)[C@H](O)[C@H]5NC(C)=O)[C@@H](O)[C@H](O[C@H]5O[C@H](CO)[C@@H](O)[C@H](O)[C@@H]5O[C@@H]5O[C@H](CO)[C@@H](O[C@@H]6O[C@H](CO[C@]7(C(=O)O)C[C@H](O)[C@@H](NC(C)=O)[C@H]([C@H](O)[C@H](O)CO)O7)[C@H](O)[C@H](O)[C@H]6O)[C@H](O)[C@H]5NC(C)=O)[C@@H]4O)[C@H](O)[C@H]3NC(C)=O)[C@H](O)[C@H]2NC(C)=O)CSSC[C@@H](C(=O)N[C@@H](CC(N)=O)C(=O)N[C@@H](CO)C(=O)N[C@@H](Cc2ccccc2)C(=O)N[C@@H](CCCNC(=N)N)C(=O)N[C@@H](Cc2ccc(O)cc2)C(=O)O)NC(=O)CNC(=O)[C@H](CC(C)C)NC(=O)CNC(=O)[C@H](CO)NC(=O)[C@H](CCC(N)=O)NC(=O)[C@H](C)NC(=O)CNC1=O [Compound 2-30, SG-PEG(11)-hANP(1-28)]	4
CC[C@H](C)[C@@H]1NC(=O)[C@H](CCCNC(=N)N)NC(=O)[C@H](CC(=O)O)NC(=O)[C@H](CCSC)NC(=O)[C@H](CCCNC(=N)N)NC(=O)CNC(=O)CNC(=O)[C@H](Cc2ccccc2)NC(=O)[C@@H](NC(=O)[C@H](CO)NC(=O)[C@H](CO)NC(=O)[C@H](CCCNC(=N)N)NC(=O)[C@H](CCCNC(=N)N)NC(=O)[C@H](CC(C)C)NC(=O)[C@H](CO)NC(=O)CO[C@@H]2O[C@H](CO)[C@@H](O[C@@H]3O[C@H](CO)[C@@H](O[C@@H]4O[C@H](CO[C@H]5O[C@H](CO)[C@@H](O)[C@H](O)[C@@H]5O[C@@H]5O[C@H](CO)[C@@H](O[C@@H]6O[C@H](CO[C@]7(C(=O)O)C[C@H](O)[C@@H](NC(C)=O)[C@H]([C@H](O)[C@H](O)CO)O7)[C@H](O)[C@H](O)[C@H]6O)[C@H](O)[C@H]5NC(C)=O)[C@@H](O)[C@H](O[C@H]5O[C@H](CO)[C@@H](O)[C@H](O)[C@@H]5O[C@@H]5O[C@H](CO)[C@@H](O[C@@H]6O[C@H](CO[C@]7(C(=O)O)C[C@H](O)[C@@H](NC(C)=O)[C@H]([C@H](O)[C@H](O)CO)O7)[C@H](O)[C@H](O)[C@H]6O)[C@H](O)[C@H]5NC(C)=O)[C@@H]4O)[C@H](O)[C@H]3NC(C)=O)[C@H](O)[C@H]2NC(C)=O)CSSC[C@@H](C(=O)N[C@@H](CC(N)=O)C(=O)N[C@@H](CO)C(=O)N[C@@H](Cc2ccccc2)C(=O)N[C@@H](CCCNC(=N)N)C(=O)N[C@@H](Cc2ccc(O)cc2)C(=O)O)NC(=O)CNC(=O)[C@H](CC(C)C)NC(=O)CNC(=O)[C@H](CO)NC(=O)[C@H](CCC(N)=O)NC(=O)[C@H](C)NC(=O)CNC1=O [Compound 2-1, SG-hANP(1-28)]	3
